Measured values reported in publication PMC2291074 (Molecular Vision, 2008).
One block for each binder: values may come before it. Ends that are not written are not given here.

Experiments:
[1] = molecular target: T1, recombinant human αB-crystallin (human, UniProt P02511 1-175); test: cross-linking; sulfo-SBED label transfer: 0.25 mg derivatized peptide with 0.25 mg αB-crystallin at 37 °C for 2 h; unbound peptide removed on a 10,000 Da cut-off filter; photolysis at 365 nm for 15 min on ice; biotin on αB-crystallin detected by SDS-PAGE and avidin-HRP blot; details: both partners purified
T1 construct: human αB-crystallin, cDNA cloned into pET-23d(+); tryptic peptides 1-11 and 164-175 were observed; No tag is named and purification was by SEC and ion exchange, so it is probably untagged; source: E. coli BL21(DE3) pLysS, purified (size exclusion chromatography, then ion-exchange chromatography)
T1 sequence (looked up): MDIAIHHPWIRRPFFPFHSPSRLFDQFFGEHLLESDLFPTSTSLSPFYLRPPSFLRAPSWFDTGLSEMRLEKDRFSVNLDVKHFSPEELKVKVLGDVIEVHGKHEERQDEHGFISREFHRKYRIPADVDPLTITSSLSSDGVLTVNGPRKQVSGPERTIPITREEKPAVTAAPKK

[2] = molecular target: T1, recombinant human αB-crystallin

- binding result [1]: binds
B1: sulfo-SBED-derivatized βA3/A1_(102–117) peptide (peptide)
peptide: SDAYHIERLMSFRPIC
modifications: also: sulfo-SBED cross-linker attached, site not given here
notes: The peptide has no lysine, so the amine-specific reagent probably sits on the N-terminal amine; also called biotin-derivatized peptide; source: synthetic peptide, purified by HPLC, derivatized with sulfo-SBED and dialyzed

- light scattering at 60 min of βL-crystallin (100 μg) denatured at 55 °C with 5 μg αB-crystallin and 60 μg substituted peptide (αB-crystallin alone: decreased by 41%); no anti-chaperone effect [2]: 53%
Binder: SDADHGERLMSFRPIC [substituted peptide]
